Laboratory results as given in the supplement of paper PMC12783771.
± gives the standard deviation of the averaged measurements.

B1: library; a variant is named by its letters at X, in order (parent)
chain: MNIQIGELAKRTACPVVTIRFYEQEGLLPPPGRSRGNFRLYGEEHVERLQFIRHCRSLDMPLSXVRTLLSYRKRPDQDCGEVXMLLDEHXRQVESRIGALLELXHXLVELREACSGARPAQSCGILQGLSDCVCDTRGTTAHXSD

Variants of: B1
Assay: sfGFP reporter fluorescence (15 h) (µM FITC); higher = higher leak
Conditions: library round: Round 3b; ligand: none
Summary of the method: (§1)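 Values are endpoint sfGFP fluorescence given as µM FITC equivalents. Fluorescence was read at 485/528 nm on a Synergy Neo2, and FITC standard curves were prepared in 50 mM sodium borate pH 8.5. Reactions of 1 μL combined BL21 Star (DE3) PANOx-SP extract, pPbrR-sfGFP reporter, 30 μg/mL GamS and linear PbrR templates (PCR-made, Echo-normalized to 5 nM), with 1 µM lead chloride, 30 µM zinc acetate or no metal, for 15 hr at 30 °C.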

Variant | sfGFP reporter fluorescence
KIAKEP | 0.052 ± 0.0034
KIAKET | 0.0531 ± 0.0032
DFAKER | 0.044 ± 0.0022
KNAVAT | 0.045 ± 0.0035
KFIVHT | 0.0536 ± 0.0065
KNATER | 0.0529 ± 0.0011
DIATHT | 0.0414 ± 0.0019
KNIVAT | 0.092 ± 0.0023
KFITEP | 0.0482 ± 0.0055
KFITET | 0.0451 ± 0.0028
KFITER | 0.0486 ± 0.00051
DNATER | 0.0446 ± 0.0017
KIIKET | 0.0423 ± 0.0019
KFATET | 0.0469 ± 0.0028
DIATER | 0.0429 ± 0.0012
DFATHT | 0.0408 ± 0.0051
KIAVAT | 0.0607 ± 0.0022
KIIVAT | 0.0506 ± 0.0022
DFATAR | 0.0431 ± 0.00051
DFATAT | 0.0428 ± 0.0034
KNITAT | 0.0655 ± 0.0027
DNAVAR | 0.0458 ± 0.0027

Variant | sfGFP reporter fluorescence
KFAKAR | 0.0579 ± 0.0044
DIITER | 0.0474 ± 0.0038
KFIVER | 0.0558 ± 0.0015
KIITET | 0.0468 ± 0.0019
KFATAT | 0.0465 ± 0.0042
DFATER | 0.044 ± 0.0013
KFAKHR | 0.0685 ± 0.0035
KFAKHT | 0.0669 ± 0.0082
DFAVER | 0.0402 ± 0.0024
DFAVET | 0.0447 ± 0.00067
KFAKET | 0.0549 ± 0.0049
DFITAR | 0.0422 ± 0.0057
KIATHP | 0.07594 ± 0.00067
KIATHT | 0.0743 ± 0.0012
KIAVET | 0.0672 ± 0.0059
KIAVEP | 0.0654 ± 0.0022
KFAVET | 0.0489 ± 0.0017
DFAVAR | 0.0466 ± 0.0033
DFAVAT | 0.0442 ± 0.0011
KFIKET | 0.0439 ± 0.002
KFIKER | 0.0412 ± 0.0027
KNAVEP | 0.0529 ± 0.0031

Variants of: B1
Assay: sfGFP reporter fluorescence (15 h) (µM FITC); higher = stronger transcriptional activation
Conditions: library round: Round 3b; ligand: 1 µM Pb
Summary of the method: as §1

Variant | sfGFP reporter fluorescence
KIAKEP | 0.387 ± 0.02
KIAKET | 0.4674 ± 0.0044
DFAKER | 0.0459 ± 0.002
KNAVAT | 0.155 ± 0.0086
KFIVHT | 0.7 ± 0.038
KNATER | 0.343 ± 0.014
DIATHT | 0.103 ± 0.0068
KNIVAT | 0.52 ± 0.048
KFITEP | 0.36 ± 0.014
KFITET | 0.3727 ± 0.0019
KFITER | 0.435 ± 0.016
DNATER | 0.0458 ± 0.0017
KIIKET | 0.128 ± 0.0066
KFATET | 0.404 ± 0.017
DIATER | 0.0627 ± 0.0026
DFATHT | 0.0491 ± 0.0032
KIAVAT | 1.25 ± 0.024
KIIVAT | 0.424 ± 0.013
DFATAR | 0.05286 ± 0.00019
DFATAT | 0.0475 ± 0.0011
KNITAT | 0.358 ± 0.021
DNAVAR | 0.0485 ± 0.0025

Variant | sfGFP reporter fluorescence
KFAKAR | 0.663 ± 0.0095
DIITER | 0.0576 ± 0.0022
KFIVER | 0.491 ± 0.0094
KIITET | 0.265 ± 0.01
KFATAT | 0.455 ± 0.007
DFATER | 0.0474 ± 0.0018
KFAKHR | 0.843 ± 0.073
KFAKHT | 0.777 ± 0.035
DFAVER | 0.0506 ± 0.0017
DFAVET | 0.051 ± 0.0039
KFAKET | 0.413 ± 0.019
DFITAR | 0.0635 ± 0.0015
KIATHP | 1.34 ± 0.049
KIATHT | 1.3 ± 0.031
KIAVET | 1.21 ± 0.013
KIAVEP | 0.997 ± 0.055
KFAVET | 0.41 ± 0.071
DFAVAR | 0.0575 ± 0.0018
DFAVAT | 0.0558 ± 0.0015
KFIKET | 0.135 ± 0.0014
KFIKER | 0.147 ± 0.0078
KNAVEP | 0.235 ± 0.021

Same assay, conditions: library round: Round 3b; ligand: 30 µM Zn

Variant | sfGFP reporter fluorescence
KIAKEP | 0.051 ± 0.0007
KIAKET | 0.057 ± 0.0063
DFAKER | 0.0423 ± 0.00089
KNAVAT | 0.237 ± 0.018
KFIVHT | 0.365 ± 0.038
KNATER | 0.336 ± 0.035
DIATHT | 0.0451 ± 0.0014
KNIVAT | 1.42 ± 0.2
KFITEP | 0.0694 ± 0.0043
KFITET | 0.0737 ± 0.0037
KFITER | 0.0763 ± 0.005
DNATER | 0.0522 ± 0.0022
KIIKET | 0.0466 ± 0.001
KFATET | 0.0606 ± 0.0013
DIATER | 0.0413 ± 0.00067
DFATHT | 0.0448 ± 0.0049
KIAVAT | 0.0576 ± 0.0032
KIIVAT | 0.0534 ± 0.0041
DFATAR | 0.0448 ± 0.0015
DFATAT | 0.0455 ± 0.0051
KNITAT | 0.972 ± 0.077
DNAVAR | 0.0579 ± 0.0046

Variant | sfGFP reporter fluorescence
KFAKAR | 0.0902 ± 0.0064
DIITER | 0.0446 ± 0.0022
KFIVER | 0.0916 ± 0.0098
KIITET | 0.0513 ± 0.0034
KFATAT | 0.056 ± 0.0037
DFATER | 0.0469 ± 0.0034
KFAKHR | 0.33 ± 0.014
KFAKHT | 0.299 ± 0.047
DFAVER | 0.0474 ± 0.0015
DFAVET | 0.0469 ± 0.00097
KFAKET | 0.0675 ± 0.0044
DFITAR | 0.0455 ± 0.0024
KIATHP | 0.0972 ± 0.014
KIATHT | 0.112 ± 0.0078
KIAVET | 0.0607 ± 0.0027
KIAVEP | 0.0578 ± 0.0022
KFAVET | 0.0549 ± 0.0017
DFAVAR | 0.0492 ± 0.0035
DFAVAT | 0.0449 ± 0.0022
KFIKET | 0.0531 ± 0.0027
KFIKER | 0.0496 ± 0.0038
KNAVEP | 0.211 ± 0.024
